Where “and” joins values, the source holds several entries; their conditions need not be identical. Equal values may be shown once.
Target: the molecule itself
Experiment: SEC

B1: LZTR1^L580P recombinant protein (LZTR1-Myc-6xHis with p.L580P) (natural protein)
chain: MAGPGSTGGQIGAAALAGGARSKVAPSVDFDHSCSDSVEYLTLNFGPFETVHRWRRLPPCDEFVGARRSKHTVVAYKDAIYVFGGDNGKTMLNDLLRFDVKDCSWCRAFTTGTPPAPRYHHSAVVYGSSMFVFGGYTGDIYSNSNLKNKNDLFEYKFATGQWTEWKIEGRLPVARSAHGATVYSDKLWIFAGYDGNARLNDMWTIGLQDRELTCWEEVAQSGEIPPSCCNFPVAVCRDKMFVFSGQSGAKITNNLFQFEFKDKTWTRIPTEHLLRGSPPPPQRRYGHTMVAFDRHLYVFGGAADNTLPNELHCYDVDFQTWEVVQPSSDSEVGGAEVPERACASEEVPTLTYEERVGFKKSRDVFGLDFGTTSAKQPTQPASELPSGRLFHAAAVISDAMYIFGGTVDNNIRSGEMYRFQFSCYPKCTLHEDYGRLWESRQFCDVEFVLGEKEECVQGHVAIVTARSRWLRRKITQARERLAQKLEQEAAPVPREAPGVAAGGARPPLLHVAIREAEARPFEVLMQFLYTDKIKYPRKGHVEDVLLIMDVYKLALSFQLCRLEQLCRQYIEASVDLQNVPVVCESAARLQLSQLKEHCLNFVVKESHFNQVIMMKEFERLSSPLIVEIVRRKQQPPPRTPLDQPVDIGTSLIQDMKAYLEGAGAEFCDITLLLDGHPRPAHKAILAARSSYFEAMFRSFMPEDGQVNISIGEMVPSRQAFESMLRYIYYGEVNMPPEDSLYLFAAPYYYGFYNNRLQAYCKQNLEMNVTVQNVLQILEAADKTQALDMKRHCLHIIVHQFTKVSKLPTLRSLSQQLLLDIIDSLASHISDKQCAELGADI
B1 was tested, and the “stoichiometry N” value was 6 and 4.
